Laboratory results taken from PMC4938799, “LD Motif Recognition by Talin: Structure of the Talin-DLC1 Complex” (Structure(London, England:1993), 2016).

What was measured:
[1] = tested on: A549 human non-small cell lung cancer line; assay: Transwell cell migration assay; format: cell-based; conditions: transfected A549, transwell, 24 h; mean over three experiments
Source text: (§1) Figure 6 Talin R8 Mutations Disrupt the Interaction with DLC1 and Affect Its Biological Activity (A) Wild-type GST-talin fragments pull down more DLC1 than the 2E mutants. Extracts of HEK293T cells transfected with GFP-DLC1 and GST-talin constructs were subjected to pull-down assays with glutathione beads followed by immunoblotting with anti-GST and anti-DLC1 on the same membrane (top). The transfected GFP-DLC1 in each sample is shown by the anti-DLC1 blot (bottom) as a loading control. (B) Wild-type GST-talin fragments compete efficiently with endogenous talin to form a complex with DLC1. The supernatants collected after pull-down assay from (A) were reused for co-immunoprecipitation with an anti-talin antibody and blotted with anti-DLC1 (top). A small aliquot from each lane was blotted for endogenous talin as a loading control (bottom). (C) Co-expression of GST or GST-talin fragments (wild-type or 2E mutant) with GFP DLC1 in A549 cells. […] Transfected A549 cells were cultured in G418 for 3 weeks, and colonies counted and quantitated (top). […] Transfected A549 cells were grown for 3 weeks in soft agar, and colonies counted and quantitated (top). […] Lysates from migrated cells were quantitated (top), and representative microscopic images of the migrated cells are shown (bottom). […]

[2] = tested on: A549 human non-small cell lung cancer line; assay: G418 (monolayer) colony growth assay; format: cell-based; conditions: transfected A549, G418 for 3 weeks; mean over three experiments
Source text: as §1

B1: GST-R8: GST-tagged talin R8, amino acids 1,453–1,580 (protein)
chain: NSQAGQQGLVEPTQFARANQAIQMACQSLGEPGCTQAQVLSAATIVAKHTSALCNSCRLASARTANPTAKRQFVQSAKEVANSTANLVKTIKALDGDFTEENRAQCRAATAPLLEAVDNLSAFASNPE
modifications: left off: GST, end not stated, kept
Which results are given for B1?
cell migration [1]: no detectable biological activity; colony growth [2]: no detectable biological activity
